Experimental data from patent US20150274781A1 (UNIVERSITAET LEIPZIG, published 2015).
Where two headings read alike, the source gives them in different places. Where no end group is shown, it is not given here. [ ]: non-standard residue; d: D form. d1Nal = N[C@H](Cc1cccc2ccccc12)C(=O)O; Phg = N[C@H](C(=O)O)c1ccccc1; Nva = CCC[C@H](N)C(=O)O

B1: K-(D-tBf)-FwLL-NH2 (peptide)
peptide: KXFXLL
modifications: tert-butyl-D-phenylalanine (D-tBf) at 2; D-Trp at 4; C-terminal amide
B2: K-(D-Bpa)-FwLL-NH2 (peptide)
peptide: KXFXLL
modifications: 4-benzoyl-D-phenylalanine (D-Bpa) at 2; D-Trp at 4; C-terminal amide
B3: KwFwLL-NH2 (peptide)
peptide: K[dW]F[dW]LL-NH2
modifications: N-terminus assumed
SMILES: CC(C)C[C@H](NC(=O)[C@H](CC(C)C)NC(=O)[C@@H](Cc1c[nH]c2ccccc12)NC(=O)[C@H](Cc1ccccc1)NC(=O)[C@@H](Cc1c[nH]c2ccccc12)NC(=O)[C@@H](N)CCCCN)C(N)=O
B4: K-(D-2-Nal)-FwLL-NH2 (peptide)
peptide: KXFXLL
modifications: 2-naphthyl-D-alanine (D-2-Nal) at 2; D-Trp at 4; C-terminal amide
B5: KwF-(D-1-Nal)-LL-NH2 (peptide)
peptide: KXFXLL
modifications: D-Trp at 2; 1-naphthyl-D-alanine (D-1-Nal) at 4; C-terminal amide
B6: K-(D-1-Nal)-(L-Phg)-wLL-NH2 (peptide)
peptide: K[d1Nal][Phg][dW]LL-NH2
modifications: N-terminus assumed
SMILES: CC(C)C[C@H](NC(=O)[C@H](CC(C)C)NC(=O)[C@@H](Cc1c[nH]c2ccccc12)NC(=O)[C@@H](NC(=O)[C@@H](Cc1cccc2ccccc12)NC(=O)[C@@H](N)CCCCN)c1ccccc1)C(N)=O
B7: K-(D-1-Nal)-(L-Cha)-wLL-NH2 (peptide)
peptide: KXXXLL
modifications: 1-naphthyl-D-alanine (D-1-Nal) at 2; 3-cyclohexyl-L-alanine (L-Cha) at 3; D-Trp at 4; C-terminal amide
B8: K-(D-Bth)-FwLL-NH2 (peptide)
peptide: KXFXLL
modifications: beta-(3-benzothienyl)-D-alanine (D-Bth) at 2; D-Trp at 4; C-terminal amide
B9: K-(D-1-Nal)-(L-Nva)-wLL-NH2 (peptide)
peptide: K[d1Nal][Nva][dW]LL-NH2
modifications: N-terminus assumed
SMILES: CCC[C@H](NC(=O)[C@@H](Cc1cccc2ccccc12)NC(=O)[C@@H](N)CCCCN)C(=O)N[C@H](Cc1c[nH]c2ccccc12)C(=O)N[C@@H](CC(C)C)C(=O)N[C@@H](CC(C)C)C(N)=O
B10: K-(D-1-Nal)-(D-Phe)-wLL-NH2 (peptide)
peptide: KXXXLL
modifications: 1-naphthyl-D-alanine (D-1-Nal) at 2; D-Phe at 3; D-Trp at 4; C-terminal amide
B11: K-(D-1-Nal)-FwLL-NH2 (peptide)
peptide: KXFXLL
modifications: 1-naphthyl-D-alanine (D-1-Nal) at 2; D-Trp at 4; C-terminal amide
B12: K-(D-Phe)-FwLL-NH2 (peptide)
peptide: KXFXLL
modifications: D-Phe at 2; D-Trp at 4; C-terminal amide
B13: K-(D-Bip)-FwLL-NH2 (peptide)
peptide: KXFXLL
modifications: 4,4'-biphenyl-D-alanine (D-Bip) at 2; D-Trp at 4; C-terminal amide
B14: K-(D-1-Nal)-(L-tBf)-wLL-NH2 (peptide)
peptide: KXXXLL
modifications: 1-naphthyl-D-alanine (D-1-Nal) at 2; tert-butyl-L-phenylalanine (L-tBf) at 3; D-Trp at 4; C-terminal amide
B15: KwF-(D-2-Nal)-LL-NH2 (peptide)
peptide: KXFXLL
modifications: D-Trp at 2; 2-naphthyl-D-alanine (D-2-Nal) at 4; C-terminal amide
B16: K-(D-Dip)-FwLL-NH2 (peptide)
peptide: KXFXLL
modifications: 3,3-diphenyl-D-alanine (D-Dip) at 2; D-Trp at 4; C-terminal amide

How the values were obtained:
Experiment in all cases: cell-based or functional assay
[1] = molecular target: T1, human ghrelin receptor (human, UniProt Q92847 1-366)
[2] = molecular target: T1, human ghrelin receptor; remark: listed apart in the source
[3] = molecular target: T1, human ghrelin receptor; remark: listed apart in the source

T1 sequence (Q92847 whole entry): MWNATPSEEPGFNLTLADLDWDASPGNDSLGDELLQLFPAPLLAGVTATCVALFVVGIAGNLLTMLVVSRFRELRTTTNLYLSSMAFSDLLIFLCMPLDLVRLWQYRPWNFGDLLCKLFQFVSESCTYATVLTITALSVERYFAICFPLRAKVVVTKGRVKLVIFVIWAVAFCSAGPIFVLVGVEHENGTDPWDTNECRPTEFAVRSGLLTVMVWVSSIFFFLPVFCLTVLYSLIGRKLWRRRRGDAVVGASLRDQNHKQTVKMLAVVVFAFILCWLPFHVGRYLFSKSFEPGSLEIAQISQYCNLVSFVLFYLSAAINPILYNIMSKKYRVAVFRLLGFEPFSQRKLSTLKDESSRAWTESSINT

Binder	EC50, inverse agonistic activity, inositol trisphosphate turnover assay in COS-7 cells transfected with the ghrelin receptor [1] [nM]	Emax [Δ %], inverse agonistic activity, inositol trisphosphate turnover assay [1]	EC50, inverse agonistic activity, inositol trisphosphate turnover assay in COS-7 cells transfected with the ghrelin receptor [3] [nM]	x-fold (EC50) compared to K-(D-1-Nal)-FwLL-NH2 [3] [fold]	Emax [Δ %], inverse agonistic activity, inositol trisphosphate turnover assay [3]	further results
B1	624	76 Δ %	–	–	–	–
B2	169	67 Δ %	–	–	–	–
B3	45.6	37 Δ %	–	–	–	–
B4	161	66 Δ %	–	–	–	–
B5	–	–	–	–	–	EC50, agonistic activity, inositol trisphosphate turnover assay in COS-7 cells transfected with the ghrelin receptor [2]: 17.9 nM
B6	–	–	> 1000	> 290	–	–
B7	–	–	96.8	28.5	85 Δ %	x-fold (Emax) compared to K-(D-1-Nal)-FwLL-NH2 [3]: 1.3 fold
B8	–	81 Δ %	–	–	–	–
B9	–	–	498	146	71 Δ %	x-fold (Emax) compared to K-(D-1-Nal)-FwLL-NH2 [3]: 1.1 fold
B10	–	–	120	35.2	58 Δ %	x-fold (Emax) compared to K-(D-1-Nal)-FwLL-NH2 [3]: 0.9 fold
B11	3.4	64 Δ %	3.4	–	64 Δ %	–
B12	241	62 Δ %	–	–	–	–
B13	184	82 Δ %	–	–	–	–
B14	–	–	124	36.5	84 Δ %	x-fold (Emax) compared to K-(D-1-Nal)-FwLL-NH2 [3]: 1.3 fold
B15	–	–	–	–	–	EC50, agonistic activity, inositol trisphosphate turnover assay in COS-7 cells transfected with the ghrelin receptor [2]: 12.6 nM
B16	13.1	87 Δ %	–	–	–	–
